A short description of data set [1]: Metabolic stability in human plasma by HPLC. In kind it is in vitro ADME. Conditions: lyophilized human plasma 1 g in 10 ml water, 0.2 µm filtered; 8 mg probe in 2 ml plasma; 37 °C, 700 rpm; 5 min to 24 h; HPLC C18, absorbance 220 nm, blank subtracted. As to the method: 1 g of lyophilized human plasma was dissolved in 10 ml ultrapure water and mixed for 12 h at 4 °C. Afterward, the plasma was filtered with a pore size of 0.2 µm, and the filtrate was mixed for 1 h at 37 °C. 2 ml of plasma was mixed with 8 mg of the ADAMTS4-specific probe, while 2 ml plasma was kept blank. Both samples were shaken at 37 °C at 700 rpm. After different time points (5 min, 30 min, 45 min, 1 h, 2 h, […], 18 h, and 24 h) respectively, 200 µl of both samples were removed and 200 µl guanidium HCl (6 M, pH 3) was added to each sample and mixed for 30 min at RT. Afterward, 1 ml EtOH was added, and the samples were shaken at 4 °C for 48 h. The samples were centrifuged at 4 °C, 22640 x g for 15 min, and 1 ml of the supernatant was taken. The solvent was removed with the Speedvac (Martin Christ RVC 2-18 CDplus) at 37 °C. 250 µl ultrapure water + 0.2% TFA were added into each sample and shaken overnight. The samples were centrifuged at 4 °C, 22640 x g for 15 min, and 200 µl were transferred into MS vials. The samples were measured with an AdvanceBio Peptide Map column (C18; Core-shell; length 15 cm; ID 2.1 mm) on a 1260 Infinity Bioinert Quaternary LC System (Agilent Technologies). The following conditions were used: 2 µl injections volume, flowrate 0.4 ml/min, 0–30 min 99% A to 85% A (A: ultrapure water with 0.2% TFA; B ACN with 0.16% TFA). […]

In data set [2] the target is T1, ADAMTS5 (Homo sapiens, UniProt Q9UNA0).
T1 construct: His; purchased BioTeZ Berlin-Buch GmbH 30 400 502
T1 sequence (Q9UNA0 262-930): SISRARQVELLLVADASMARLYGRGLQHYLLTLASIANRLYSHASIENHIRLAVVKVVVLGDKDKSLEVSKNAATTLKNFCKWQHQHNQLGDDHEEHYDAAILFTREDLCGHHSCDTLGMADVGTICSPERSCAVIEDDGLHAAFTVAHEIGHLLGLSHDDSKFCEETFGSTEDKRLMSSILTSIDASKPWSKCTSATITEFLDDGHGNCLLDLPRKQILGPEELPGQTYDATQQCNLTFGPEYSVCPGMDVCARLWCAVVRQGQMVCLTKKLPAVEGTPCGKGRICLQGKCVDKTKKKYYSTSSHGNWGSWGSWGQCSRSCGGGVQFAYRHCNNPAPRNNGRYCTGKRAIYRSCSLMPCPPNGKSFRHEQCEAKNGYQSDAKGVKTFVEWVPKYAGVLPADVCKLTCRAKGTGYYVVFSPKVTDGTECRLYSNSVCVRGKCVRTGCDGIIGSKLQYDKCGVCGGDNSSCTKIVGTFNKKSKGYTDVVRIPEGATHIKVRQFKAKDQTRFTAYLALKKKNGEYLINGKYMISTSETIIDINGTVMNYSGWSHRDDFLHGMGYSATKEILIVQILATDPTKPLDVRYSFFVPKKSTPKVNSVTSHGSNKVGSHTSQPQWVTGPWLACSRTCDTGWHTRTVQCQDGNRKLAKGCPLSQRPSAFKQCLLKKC
In words: MST instrument, ligand-dependent fluorescence change, Cy5-labeled peptide vs ADAMTS5. The data set is classed as binding. Conditions: Cy5-labeled peptide 3 nM, ADAMTS5 starting concentration 2.46 µM, n = 3. As to the method: Microscale thermophoresis (MST) was performed on a Monolith Pico (NanoTemper, Munich, Germany). The Cy5-labeled peptides were diluted into the MST buffer (150 mM NaCl, 50 mM TRIS-HCl, 5 mM CaCl2, and Tween-20) to reach a dilution of 6 nM. ADAMTS4, ADAMTS5, and ADAMTS1 were directly used with the supplied concentration. For ADAMTS4, the starting concentration was 4.96 µM, while for ADAMTS1 it was 4.88 µM and for ADAMTS5 it was 2.46 µM. Since we saw a loss of binding after centrifugation, the use of protein concentrators were inappropriate. 20 µl of the protein solutions were transferred into a PCR tube. 10 µl of this first vial was transferred into a second vial and mixed by pipetting with 10 µl of the MST buffer. […] The capillaries were transferred into the Monolith tray and measured with 10% excitation power on the pico-red excitation on high MST power at 25 °C. […] We detected a ligand-dependent fluorescence change for some of the systems. We checked for ADAMTS4 and the ADAMTS4-specific-Cy5-labeled probe via a saturation test for specifying the ligand-dependent fluorescence change. […] The samples were heated at 95 °C for 5 min and measured in the MST. The fluorescence difference between the concentrations was afterward at the same level. Each measurement was repeated three times independently and the binding constant was calculated by merging all three measurements. […]

Entries after “also recorded” stand apart in the source; their conditions may differ. Where a SMILES comes first, the peptide text is derived from it. Bridges are numbered along the chain shown (N, C = ends). The star is where a group is joined. Cy5(nonsulfonated) = CN1C(=CC=CC=CC2=[N+](CCCCCC(=O)*)c3ccccc3C2(C)C)C(C)(C)c2ccccc21; DOTA = O=C(O)CN1CCN(CC(=O)O)CCN(CC(=O)*)CCN(CC(=O)O)CC1

For the compound `N=C(N)NCCC[C@@H]1NC(=O)[C@H](CCCNC(=N)N)NC(=O)[C@H](CO)NC(=O)[C@@H](N)CSSC[C@@H](C(=O)N[C@@H](CO)C(=O)NCC(=O)NCC(=O)N[C@@H](CO)C(=O)NCC(=O)NCC(=O)N[C@@H](CCCCNC(=O)CN2CCN(CC(=O)O)CCN(CC(=O)O)CCN(CC(=O)O)CC2)C(=O)NCC(N)=O)NC(=O)CNC1=O` (Gd complex, metal not drawn) [ADAMTS4-specific probe] (H-CSRRGCSGGSGGK(DOTA)G-NH2; disulfide 1-6), the “degradation in human plasma within 24 h” value in data set [1] was “No relevant degradation; also recorded: No relevant biodegradation”.

Consider `C[N+]1=C(C=CC=CC=C2N(CCCCCC(=O)NCCCC[C@H](NC(=O)CNC(=O)CNC(=O)[C@H](CO)NC(=O)CNC(=O)CNC(=O)[C@H](CO)NC(=O)[C@@H]3CSSC[C@H](N)C(=O)N[C@@H](CO)C(=O)N[C@@H](CCCNC(=N)N)C(=O)N[C@@H](CCCNC(=N)N)C(=O)NCC(=O)N3)C(=O)NCC(N)=O)c3ccccc3C2(C)C)C(C)(C)c2ccccc21` [Cy5-labeled probe] (H-CSRRGCSGGSGGK(Cy5(nonsulfonated))G-NH2; disulfide 1-6; N-terminus and C-terminus assumed), for which the “binding to ADAMTS5, in words” value in data set [2] is reported as “determination of the binding constant is not possible; also recorded: plateau was not reached; also recorded: a ligand dependent fluorescence change occurs”.

The values above are taken from paper PMC9126943, “ADAMTS4-specific MR probe to assess aortic aneurysms in vivo using synthetic peptide libraries” (Nature Communications, 2022).
